Results: paper PMC4402612

Molecular target: SPE-7 IgE (DNP-specific murine IgE/λ, highly cytokinergic) (murine)

## recombinant SPE-7 IgE Fab
  IC50 of recombinant SPE-7 IgE Fab (30–600 nM) for inhibition of LAD-2 cell TNF-α release evoked by 30 nM SPE-7 IgE; pair blocked: 'free' SPE-7 IgE with receptor-bound SPE-7 IgE: 170 nM
  IC50 of recombinant SPE-7 IgE Fab (30–600 nM) for inhibition of LAD-2 mast cell degranulation induced by 30 nM SPE-7 IgE; pair blocked: 'free' SPE-7 IgE with receptor-bound SPE-7 IgE: 190 nM
